Measurements reported in patent publication US8198236B2, “Methods and compositions for the treatment of cancer” (Washington University, priority 2007, dated 2012).
One block for each molecule: values may come before it.

What was measured:
LRP6 [1] = target: T1, LRP6 (Homo sapiens, UniProt O75581); test: Competition for 125I-Mesd binding to cell surface LRP6
T1 construct: expressed in transfected cells; host or cells: human HT1080 cells, retroviral vector pLNCX2
Description: (§1) To examine whether Mesd binds with high affinity to most members of the LDLR family at the cell surface, we performed cell surface ligand binding experiments with cells stably transduced with LRP6 cDNA. Human HT1080 cells, which express undetectable levels of LRP6, were transduced with a viral vector alone (pLNCX2) or with vector containing LRP6 cDNA (Li, Y., Oncogene 23: 9129-9135, 2004) and used for ^125I-Mesd binding (FIG. 1A). ^125I-Mesd (5 nM) reached maximal binding after 2 hours incubation at 4° C. with LRP6-expressing HT1080 cells (FIG. 1A).
(§2) Cells (2×10^5) were seeded into 12-well dishes 1 day prior to assay. Ligand-binding buffer (minimal Eagle's medium containing 0.6% BSA with a different concentration of radioligand, 0.6 ml/well) was added to cell monolayers, in the absence or the presence of 500 nM unlabeled RAP or 500 nM unlabeled Mesd, followed with incubation for 0-4 hours at 4° C. Thereafter, overlying buffer containing unbound ligand was removed, and cell monolayers were washed and lysed in low-SDS lysis buffer (62.5 mM Tris-HCl pH 6.8, 0.2% SDS, 10% v/glycerol) and counted.
We performed binding of 5 nM ^125I-Mesd (5 nM) to cell surface LRP6 in the presence of various concentrations of excess unlabeled RAP or 500 nM unlabeled Mesd (FIG. 8B). RAP inhibited ^125I-Mesd binding in a dose-dependent manner with ˜60% inhibition achieved with 500 nM RAP, whereas the same concentration of unlabeled Mesd inhibited >90% of ^125I-Mesd binding (FIG. 8B). […] The lower affinity of RAP to cell surface LRP6 may also contribute to its lower efficiency in inhibition of Mesd binding.
In FIG. 8A, binding of ^125I-RAP (5 nM) to LRP6-transduced HT1080 cells and the control cells was carried out for 4 hours at 4° C. in the absence (total) or presence of 500 nM RAP, or 500 nM Mesd. In FIG. 8B, binding of^125I-Mesd (5 nM) to LRP6-transduced HT1080 cells was carried out for 2 hours at 4° C. in the absence (total) or presence of various concentrations of RAP or 500 nM Mesd. (C) LRP6-mediated ^125I-Mesd (5 nM) degradation was carried out for 4 hours at 37° C. in the absence or presence of 500 nM Mesd or 500 nM RAP. Values are the means of triple determinations with the s.d. indicated by error bars.
(§3) In order to investigate the binding of Mesd polypeptide and an Mesd oligopeptide to either LRP5 or LRP6, binding assays were performed using ^125I-Mesd or ^125I-DKK1 (FIG. 10).

LRP5 = LRP5 (Homo sapiens, UniProt O75197); test: 125I-DKK1 binding to LRP5; settings: FIG. 10B
Chain of LRP5 (O75197 32-1615): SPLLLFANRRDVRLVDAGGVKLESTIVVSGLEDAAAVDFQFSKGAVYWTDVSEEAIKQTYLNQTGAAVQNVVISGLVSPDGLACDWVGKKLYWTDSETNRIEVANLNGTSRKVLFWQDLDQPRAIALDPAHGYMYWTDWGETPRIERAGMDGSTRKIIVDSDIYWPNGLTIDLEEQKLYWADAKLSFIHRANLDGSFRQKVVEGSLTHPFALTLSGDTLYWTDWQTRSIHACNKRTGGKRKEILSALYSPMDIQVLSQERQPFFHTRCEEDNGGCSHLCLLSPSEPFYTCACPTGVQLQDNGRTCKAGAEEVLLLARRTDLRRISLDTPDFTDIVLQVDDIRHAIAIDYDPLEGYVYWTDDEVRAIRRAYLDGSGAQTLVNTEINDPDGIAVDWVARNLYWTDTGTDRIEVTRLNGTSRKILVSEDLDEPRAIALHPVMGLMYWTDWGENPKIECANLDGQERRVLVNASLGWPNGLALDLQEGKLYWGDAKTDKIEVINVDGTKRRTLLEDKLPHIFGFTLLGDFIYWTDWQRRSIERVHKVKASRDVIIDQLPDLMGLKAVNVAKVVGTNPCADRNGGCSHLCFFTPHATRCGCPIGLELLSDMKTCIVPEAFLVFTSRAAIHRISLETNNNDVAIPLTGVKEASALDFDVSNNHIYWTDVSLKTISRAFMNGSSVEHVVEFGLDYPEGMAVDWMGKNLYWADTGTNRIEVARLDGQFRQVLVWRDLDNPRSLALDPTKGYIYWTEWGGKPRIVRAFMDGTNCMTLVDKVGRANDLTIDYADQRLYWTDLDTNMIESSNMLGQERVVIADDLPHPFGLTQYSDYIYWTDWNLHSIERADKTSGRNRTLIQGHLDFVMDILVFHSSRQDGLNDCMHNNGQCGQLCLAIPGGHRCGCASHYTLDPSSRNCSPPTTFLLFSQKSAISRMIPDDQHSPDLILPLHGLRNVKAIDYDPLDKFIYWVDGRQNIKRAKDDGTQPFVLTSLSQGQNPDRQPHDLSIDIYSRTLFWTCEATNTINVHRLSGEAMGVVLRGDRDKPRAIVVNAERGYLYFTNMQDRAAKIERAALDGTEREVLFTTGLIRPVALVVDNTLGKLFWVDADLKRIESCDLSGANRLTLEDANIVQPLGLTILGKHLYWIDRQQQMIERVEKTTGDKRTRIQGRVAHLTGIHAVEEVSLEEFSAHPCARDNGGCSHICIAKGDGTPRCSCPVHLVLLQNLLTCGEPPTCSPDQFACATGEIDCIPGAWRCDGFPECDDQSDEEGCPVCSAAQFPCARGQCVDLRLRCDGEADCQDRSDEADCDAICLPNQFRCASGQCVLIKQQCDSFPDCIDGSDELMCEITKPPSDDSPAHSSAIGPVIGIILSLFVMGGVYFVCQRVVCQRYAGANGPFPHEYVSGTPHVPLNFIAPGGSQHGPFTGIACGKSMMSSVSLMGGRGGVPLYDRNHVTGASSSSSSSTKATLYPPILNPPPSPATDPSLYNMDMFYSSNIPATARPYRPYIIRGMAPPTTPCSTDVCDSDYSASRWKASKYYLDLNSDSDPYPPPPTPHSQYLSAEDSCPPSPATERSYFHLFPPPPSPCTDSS
Description: as §3

LRP6 [2] = target: T1, LRP6; test: 125I-Mesd cell surface binding to LRP6-transduced HT1080 cells; settings: LRP6-transduced HT1080 cells
Description: as §1
(A) Time course of ^125I-Mesd (5 nM) binding to LRP6-transduced HT1080 cells and the control cells. Assay was carried out for the indicated periods at 4° C. in the absence (total) or presence of 500 nM Mesd (non-specific). (B) Saturation binding of ^125I-Mesd to LRP6-transduced HT1080 cells and the control cells. Assay was carried out at indicated concentrations for 3 hours at 4° C. in the absence (total) or presence (non-specific) of 500 nM Mesd. (C) Scatchard plots of data in B. All values are the average of triple determinations with the s.d. indicated by error bars.
as §2
To analyze the Mesd sequences that are required for Mesd to bind to mature LRP6 at the cell surface with high affinity, sequences were compared between mouse Mesd and its homologs from different species. […] We thus generated two truncated Mesd mutants lacking either the N-terminal region, MESD (12-195), or both the N-terminal and C-terminal regions, Mesd (12-155) (FIG. 3A). The ability of these mutants to bind to cell surface LRP6 was then assessed.
In this example, a truncated Mesd mutant containing the last 45 amino acids of C-terminal region was generated (FIG. 3A) and its binding affinity for LRP6 was then analyzed. […] (A) Binding analyses of ^125I-Mesd and its mutant Mesd (150-195) (5 nM) to LRP6-transduced HT1080 cells and control cells. (B) Binding analyses of ^125I-Mesd and its mutant Mesd (150-195) (5 nM) to LRP6-transduced HT1080 cells. Assays were carried out for 3 hours at 4° C. in the absence or presence of 500 nM Mesd or its mutant. Values are the means of triple determinations with the s.d. indicated by error bars.
LRP6-mediated Mesd uptake and degradation was investigated in the experiments illustrated in FIG. 7. (A) LRP6-mediated ^125I-Mesd (5 nM) degradation in LRP6-transduced HT1080 cells and control cells was carried out for 4 hours at 37° C. in the absence or presence of 500 nM Mesd. (B) ^125I-Mesd (5 nM) binding to LRP6-transduced HT1080 cells and the control cells was carried out for 4 hours at 4° C. in the absence or presence of 500 nM Mesd. Values are the means of triple determinations with the s.d. indicated by error bars.

Wnt signaling = test: TCF/LEF-luc reporter assay in Wnt-3A-treated HEK293 cells; format: cell-based; settings: Wnt3A conditioned medium plus 500 nM, 16 hours at 37° C.
Description: HEK293 cells were plated into six-well plates. For each well, 0.1 μg of the TOP-FLASHTCF luciferase construct (Upstate Biotechnology) was cotransfected with 0.8 μg Mesd-expressing vector, 0.8 μg Mesd mutant-expressing vector, or empty vector. A β-galactosidase-expressing vector (Promega, Madison, Wis.) was included as an internal control for transfection efficiency. After 48 hours, cells were lysed and both luciferase and β-galactosidase activities were determined with enzyme assay kits (Promega). The luciferase activity was determined with a luminometer using the Dual Luciferase Assay system (Promega). Luciferase activity was normalized to the activity of the β-galactosidase.
In these experiments, transfected cells were treated without Wnt-3A or with Wnt-3A plus the indicated inhibitors (Mesd and/or Dkk1) for 16 hours at 37° C. Wnt signaling was measured by quantifying the luciferase activity using a live cell imaging system.

LRP6 [3] = target: T1, LRP6; test: LRP6-mediated 125I-Mesd degradation in LRP6-transduced HT1080 cells; format: cell-based; settings: 500 nM unlabeled competitor, 4 hours at 37° C.
Description: Ligand degradation was performed using the methods as described in Li, Y., et al., J. Biol. Chem. 275: 17187-17194, 2000. Briefly, 2×10^5 cells were seeded into 12-well dishes 1 day prior to assay. Pre-warmed assay buffer (minimal Eagle's medium containing 0.6% BSA with radioligand, 0.6 ml/well) was added to cell monolayers in the absence or the presence of unlabeled 500 nM RAP or 500 nM Mesd, followed by incubation for 4 hours at 37° C. Thereafter, the medium overlying the cell monolayers was removed and proteins were precipitated by addition of BSA to 10 mg/ml and trichloroacetic acid to 20%. Degradation of radioligand was defined as the appearance of radioactive fragments in the overlying medium that were soluble in 20% trichloroacetic acid. Kinetic analysis of endocytosis LRP6-transduced HT1080 cells were plated in 12-well plates at a density of 2×10^5 cells/well and used after overnight culture. Cells were rinsed twice in ice-cold assay buffer (minimal Eagle's medium containing 0.6% BSA), and ^125I-anti-HA IgG was added at 1 nM final concentration in cold assay buffer (0.5 ml/well). The binding of ^125I-anti-HA IgG was carried out at 4° C. for 90 minutes with gentle rocking Unbound ^125I-anti-HA IgG was removed by washing cell monolayers three times with cold assay buffer. Ice-cold stop/strip solution (0.2 M acetic acid, pH 2.6, 0.1 M NaCl) was added to one set of plates without warming up and kept on ice. The remaining plates were then placed in a 37° C. water bath and 0.5 ml assay buffer prewarmed to 37° C. was quickly added to cell monolayers to initiate internalization. After each time point, the plates were quickly placed on ice and the assay buffer was replaced with cold stop/strip solution. ^125I-anti-HA IgG that remained on the cell surface was stripped by incubation of cell monolayers with cold stop/strip solution for a total of 20 minutes (0.75 ml for 10 minutes, twice) and counted. Cell monolayers were then solubilized with low-SDS lysis buffer and counted. […] The fraction of internalized ^125I-anti-HA IgG after each time point was calculated and plotted. […]

LRP6 [4] = target: T1, LRP6; test: LRP6-mediated 125I-DKK1 degradation in LRP6-transduced HT1080 cells; format: cell-based; settings: 500 nM unlabeled, 4 hours at 37° C.
Description: Ligand degradation was performed using the methods as described in Li, Y., et al., J. Biol. Chem. 275: 17187-17194, 2000. Briefly, 2×10^5 cells were seeded into 12-well dishes 1 day prior to assay. Pre-warmed assay buffer (minimal Eagle's medium containing 0.6% BSA with radioligand, 0.6 ml/well) was added to cell monolayers in the absence or the presence of unlabeled 500 nM RAP or 500 nM Mesd, followed by incubation for 4 hours at 37° C. Thereafter, the medium overlying the cell monolayers was removed and proteins were precipitated by addition of BSA to 10 mg/ml and trichloroacetic acid to 20%. […] After each time point, the plates were quickly placed on ice and the assay buffer was replaced with cold stop/strip solution. ^125I-anti-HA IgG that remained on the cell surface was stripped by incubation of cell monolayers with cold stop/strip solution for a total of 20 minutes (0.75 ml for 10 minutes, twice) and counted. Cell monolayers were then solubilized with low-SDS lysis buffer and counted. […] The fraction of internalized ^125I-anti-HA IgG after each time point was calculated and plotted.
RAP is a receptor antagonist for members of the LDLR family, and is able to inhibit the binding of most known ligands of the LDLR family members. […] Cell-surface-bound Myc-tagged DKK proteins were fixed and detected by immunofluorescence staining with anti-Myc antibody. […]

LRP6 [5] = target: T1, LRP6; test: 125I-DKK1 binding to LRP6; settings: 500 nM unlabeled, 125I-DKK1 5 nM, 3 hours at 4° C.
Description: as §2
RAP is a receptor antagonist for members of the LDLR family, and is able to inhibit the binding of most known ligands of the LDLR family members. DKK1 is an LRP6-specific ligand and antagonist. […] In these experiments, Serum-free conditioned medium was harvested from HEK293 cells transiently transfected with cDNA for human Myc-DKK1 and allowed to bind to LRP6-transduced HT1080 cells (B,C) and control cells (A) in the absence (A,B) or presence (C) of 1 μM Mesd. Cell-surface-bound Myc-tagged DKK proteins were fixed and detected by immunofluorescence staining with anti-Myc antibody. (D) DKK1 binding to cell surface LRP6 is inhibited by Mesd. Binding of 125I-DKK1 (5 nM) to LRP6-transduced HT1080 cells or the control cells was carried out for 3 hours at 4° C. in the absence (total) or presence of 500 nM RAP or 500 nM Mesd. […]

LRP6 [6] = target: T1, LRP6; test: 125I-RAP binding to LRP6-transduced HT1080 cells; settings: 125I-RAP 5 nM, 4 hours at 4° C.
Description: as §2
Receptor-associated protein (RAP) binds with high affinity to LRP, megalin, VLDLR and apoER2, and with a lower affinity to the LDLR (Bu, G., Int. Rev. Cytol. 209, 79-116. 2001). To determine whether RAP and Mesd bind to identical, overlapping, or different sites on the receptors, we performed binding and competition analysis of these two chaperones with HT1080 cells stably expressing LRP6.
In FIG. 8A, binding of ^125I-RAP (5 nM) to LRP6-transduced HT1080 cells and the control cells was carried out for 4 hours at 4° C. in the absence (total) or presence of 500 nM RAP, or 500 nM Mesd. In FIG. 8B, binding of^125I-Mesd (5 nM) to LRP6-transduced HT1080 cells was carried out for 2 hours at 4° C. in the absence (total) or presence of various concentrations of RAP or 500 nM Mesd. […]

T1 sequence (O75581 20-1613): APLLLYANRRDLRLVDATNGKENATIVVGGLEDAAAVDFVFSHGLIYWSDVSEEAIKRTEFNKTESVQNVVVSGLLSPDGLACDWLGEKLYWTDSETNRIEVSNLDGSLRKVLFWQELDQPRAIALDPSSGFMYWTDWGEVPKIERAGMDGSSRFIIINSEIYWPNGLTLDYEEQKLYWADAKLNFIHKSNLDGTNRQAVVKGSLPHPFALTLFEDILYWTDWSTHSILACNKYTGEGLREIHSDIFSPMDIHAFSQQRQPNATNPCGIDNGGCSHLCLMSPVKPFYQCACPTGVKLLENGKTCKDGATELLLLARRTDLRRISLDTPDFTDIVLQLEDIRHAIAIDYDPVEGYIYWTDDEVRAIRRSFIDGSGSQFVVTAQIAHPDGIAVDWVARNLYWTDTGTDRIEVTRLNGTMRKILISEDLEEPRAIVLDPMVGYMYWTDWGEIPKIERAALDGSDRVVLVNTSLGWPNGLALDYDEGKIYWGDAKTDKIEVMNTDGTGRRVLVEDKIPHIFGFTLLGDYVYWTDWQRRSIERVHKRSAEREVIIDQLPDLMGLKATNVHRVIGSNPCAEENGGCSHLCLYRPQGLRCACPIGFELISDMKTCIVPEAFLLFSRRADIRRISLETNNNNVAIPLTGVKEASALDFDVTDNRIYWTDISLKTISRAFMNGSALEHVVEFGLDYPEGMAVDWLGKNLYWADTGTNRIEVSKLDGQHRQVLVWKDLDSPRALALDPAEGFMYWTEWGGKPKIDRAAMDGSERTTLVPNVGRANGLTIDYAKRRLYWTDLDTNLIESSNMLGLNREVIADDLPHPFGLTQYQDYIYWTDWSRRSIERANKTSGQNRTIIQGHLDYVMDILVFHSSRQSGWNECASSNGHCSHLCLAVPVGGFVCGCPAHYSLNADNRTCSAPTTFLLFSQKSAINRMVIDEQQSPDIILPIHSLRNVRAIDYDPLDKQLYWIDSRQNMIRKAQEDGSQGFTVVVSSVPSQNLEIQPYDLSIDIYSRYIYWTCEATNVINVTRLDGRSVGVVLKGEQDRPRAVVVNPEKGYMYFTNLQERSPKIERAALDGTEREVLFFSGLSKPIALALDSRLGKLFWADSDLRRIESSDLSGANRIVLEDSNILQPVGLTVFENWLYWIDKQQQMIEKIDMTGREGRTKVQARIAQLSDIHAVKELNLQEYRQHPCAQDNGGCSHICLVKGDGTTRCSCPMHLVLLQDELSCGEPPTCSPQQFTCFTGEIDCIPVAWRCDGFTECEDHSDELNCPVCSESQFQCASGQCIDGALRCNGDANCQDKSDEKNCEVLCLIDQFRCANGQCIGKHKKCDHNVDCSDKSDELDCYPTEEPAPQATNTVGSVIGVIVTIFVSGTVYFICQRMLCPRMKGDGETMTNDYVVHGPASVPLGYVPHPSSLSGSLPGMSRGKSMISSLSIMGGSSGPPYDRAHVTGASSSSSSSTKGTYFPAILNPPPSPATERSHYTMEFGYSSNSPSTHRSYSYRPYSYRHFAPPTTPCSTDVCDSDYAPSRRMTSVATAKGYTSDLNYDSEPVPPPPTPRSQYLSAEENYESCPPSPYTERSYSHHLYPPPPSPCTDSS

- Reduction of binding of 125I-Mesd to LRP6 (LRP6 [1]; FIG. 10C, compared with LRP5): even greater reduction
- Reduction in binding of 125I-DKK1 to LRP5 (LRP5): small but significant reduction
Molecule: KGGGSKEKNKTKPEKAKKKEGDPKPRASKEDNRAGSR [SEQ ID NO: 20]

Molecule: QMYPGKGGGSKEKNKTKPEKAKKKEGDPKPRASKEDNRAGSRREDL [Mesd (150-195)]
- Binding of truncated Mesd mutants to cell surface LRP6 (LRP6 [2]): necessary and sufficient for LRP6 binding
- Inhibition of Wnt signaling (luciferase activity) (Wnt signaling): moderately inhibit

- Inhibition of 125I-Mesd degradation (LRP6 [3]): only partially
- Effect on increased 125I-DKK1 degradation of LRP6-expressing HT1080 cells (LRP6 [4]): not
- Inhibition of 125I-Mesd binding to cell surface LRP6 (LRP6 [1]; 500 nM unlabeled competitor, 125I-Mesd 5 nM, 2 hours at 4° C.): ~60%
- Effect on increased 125I-DKK1 binding of LRP6-expressing HT1080 cells (LRP6 [5]): not
- Increase of RAP binding in LRP6 expressing HT1080 cells compared to control cells (LRP6 [6]): ~20%
Molecule: RAP: Human recombinant 39 kDa receptor-associated protein, expressed in a GST expression vector [reference compound]

Molecule: KGGGSKEKNKTKPEKAKKKEGDRKPRASKEDNRAGSR [Mesd WT peptide]
- Inhibition of Wnt signaling (luciferase activity) (Wnt signaling): moderately inhibit

- Binding of truncated Mesd mutants to cell surface LRP6 (LRP6 [2]): no effect on LRP6 binding
B1: MESD (12-195): Truncated mouse Mesd mutant lacking the N-terminal region (protein)
chain: RKKKDIRDYNDADMARLLEQWEKDDDIEEGDLPEHKRPSAPIDFSKLDPGKPESILKMTKKGKTLMMFVTVSGNPTEKETEEITSLWQGSLFNANYDVQRFIVGSDRAIFMLRDGSYAWEIKDFLVSQDRCAEVTLEGQMYPGKGGGSKEKNKTKPEKAKKKEGDRKPRASKEDNRAGSRREDL
modifications: left off: small tags and cut ends
notes: Truncated mouse Mesd mutant lacking the N-terminal region

- Binding of truncated Mesd mutants to cell surface LRP6 (LRP6 [2]): completely abolished LRP6 binding
B2: Mesd (12-155): Truncated mouse Mesd mutant lacking both the N-terminal and C-terminal regions (protein)
chain: RKKKDIRDYNDADMARLLEQWEKDDDIEEGDLPEHKRPSAPIDFSKLDPGKPESILKMTKKGKTLMMFVTVSGNPTEKETEEITSLWQGSLFNANYDVQRFIVGSDRAIFMLRDGSYAWEIKDFLVSQDRCAEVTLEGQMYPGK
modifications: left off: small tags and cut ends
notes: Truncated mouse Mesd mutant lacking both the N-terminal and C-terminal regions
